Assay results published in article PMC4490372, “Architecture of TFIIIC and its role in RNA polymerase III pre-initiation complex assembly” (Nature Communications, 2015).
Where a chain is given by its changes, count along the chain named.

Columns and labels:
Assay in all cases: pull-down; 15 μg GST-tagged τ131 on Glutathione Sepharose 4B; 300 nM τ138 or Bdp1, or 1 μM Brf1–TBP; 50 mM Tris pH 7.5, 150 mM NaCl, 2 mM DTT, 0.1% Tween20; 4 °C, 4 h
Conditions in all cases: both partners purified
[1] = molecular target: T1, GST-tagged τ131 (1–580), wild type (S. cerevisiae, UniProt P33339 1-580)
T1 construct: τ131 (Tfc4) of S. cerevisiae TFIIIC, residues 1-580 (extended N terminus and TPR array); also called GST-τ131 (1–580); longer τ131 protein; source: E. coli BL21 (DE3) Gold, purified (GST column, S200 SEC)
T1 sequence (looked up): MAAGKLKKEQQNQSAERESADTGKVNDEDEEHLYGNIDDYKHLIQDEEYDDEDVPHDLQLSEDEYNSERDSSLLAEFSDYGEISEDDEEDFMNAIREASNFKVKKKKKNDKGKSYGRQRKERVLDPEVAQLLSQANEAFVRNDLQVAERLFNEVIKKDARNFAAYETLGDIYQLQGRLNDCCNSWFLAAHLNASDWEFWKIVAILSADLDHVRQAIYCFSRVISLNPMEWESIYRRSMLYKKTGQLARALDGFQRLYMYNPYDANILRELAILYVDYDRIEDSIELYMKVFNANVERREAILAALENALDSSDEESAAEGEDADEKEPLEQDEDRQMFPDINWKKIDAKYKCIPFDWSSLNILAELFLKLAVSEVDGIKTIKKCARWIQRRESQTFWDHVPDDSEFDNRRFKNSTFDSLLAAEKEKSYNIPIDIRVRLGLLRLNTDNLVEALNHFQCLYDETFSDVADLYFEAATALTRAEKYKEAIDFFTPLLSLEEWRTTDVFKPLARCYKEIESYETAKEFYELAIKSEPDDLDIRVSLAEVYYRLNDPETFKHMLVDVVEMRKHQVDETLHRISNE

[2] = molecular target: T2, GST-tagged τ131 (1–580) D468K (S. cerevisiae, UniProt P33339 1-580, D468K)
T2 construct: τ131 (Tfc4) of S. cerevisiae TFIIIC, residues 1-580, point mutant; also called D468K mutant of τ131 (1–580); source: E. coli BL21 (DE3) Gold, purified (GST column, S200 SEC)
T2 sequence (looked up): T1 sequence (looked up) with D468K

[3] = molecular target: T3, GST-tagged τ131 (1–580) L469K (S. cerevisiae, UniProt P33339 1-580, L469K)
T3 construct: τ131 (Tfc4) of S. cerevisiae TFIIIC, residues 1-580, point mutant; also called L469K mutant of τ131 (1–580); source: E. coli BL21 (DE3) Gold, purified (GST column, S200 SEC)
T3 sequence (looked up): T1 sequence (looked up) with L469K

Measured: binding result

B1: Brf1–TBP fusion protein Brf1 (1–382)-TBP (61–240)-Brf1 (439–596) (other, UniProt P29056 1-382, looked up)
chain: MPVCKNCHGTEFERDLSNANNDLVCKACGVVSEDNPIVSEVTFGETSAGAAVVQGSFIGAGQSHAAFGGSSALESREATLNNARRKLRAVSYALHIPEYITDAAFQWYKLALANNFVQGRRSQNVIASCLYVACRKEKTHHMLIDFSSRLQVSVYSIGATFLKMVKKLHITELPLADPSLFIQHFAEKLDLADKKIKVVKDAVKLAQRMSKDWMFEGRRPAGIAGACILLACRMNNLRRTHTEIVAVSHVAEETLQQRLNEFKNTKAAKLSVQKFRENDVEDGEARPPSFVKNRKKERKIKDSLDKEEMFQTSEEALNKNPILTQVLGEQELSSKEVLFYLKQFSERRARVVERIKATNGIDGENIYHEGSENETRKRKLSESGIVPTLQNIVATVTLGCRLDLKTVALHARNAEYNPKRFAAVIMRIREPKTTALIFASGKMVVTGAKSEDDSKLASRKYARIIQKIGFAAKFTDFKIQNIVGSCDVKFPIRLEGLAFSHGTFSSYEPELFPGLIYRMVKPKIVLLIFVSGKIVLTGAKQREEIYQAFEAIYPVLSEFRKMPRNLHLLPTTDTYLSKVSDDPDNLEDVDDEELNAHLLNEEASKLKERIWIGLNADFLLEQESKRLKQEADIATGNTSVKKKRTRRRNNTRSDEPTKTVDAAAAIGLMSDLQDKSGLHAALKAAEESGDFTTADSVKNMLQKASFSKKINYDAIDGLFR
notes: Brf1, subunit of TFIIIB, residues 1-382; TBP, subunit of TFIIIB, residues 61-240; Brf1, subunit of TFIIIB, residues 439-596; source: E. coli BL21 Star (DE3) pRARE, purified (Ni-NTA, HiTrap SP); not shown: His6, C-terminal, kept
binds: [1] | [2] | [3]
